{
  "source": "patent US7064181",
  "about": "(Takeda / Millennium, dated 2006)",
  "binders": {"B1": {"name": "porcine ligand peptide (1-60) (peptide)", "peptide": "APVHRGRGGWTLNSAGYLLGPVLHPPSRAEGGGKGKTALGILDLWKAIDGLPYPQSQLAS", "notes": "also called porcine (1-60); inventive peptide synthesis product"}, "B2": {"name": "porcine ligand peptide (1-30) (peptide)", "peptide": "APVHRGRGGWTLNSAGYLLGPVLHPPSRAE", "notes": "also called porcine (1-30)"}, "B3": {"name": "porcine ligand peptide (1-34) (peptide)", "peptide": "APVHRGRGGWTLNSAGYLLGPVLHPPSRAEGGGK", "notes": "also called porcine (1-34)"}},
  "key": {"[1]": {"target": "T1, monoclonal antibody GR2-1N", "T1 construct": "Mouse monoclonal against the same KLH complex; IgG2b, κ; also called hybridoma strain No. 4", "experiment": "competitive EIA on GR2-1N, competitor HRP-labeled SEQ ID NO:44 peptide"}, "[2]": {"target": "T2, rat GALR2 (galanin receptor type 2) (rat, UniProt O08726 1-372)", "T2 construct": "Expressed in CHO/dhfr- cells; The assays used the membrane fraction of these cells; also called rat galanin receptor GALR2", "T2 sequence": "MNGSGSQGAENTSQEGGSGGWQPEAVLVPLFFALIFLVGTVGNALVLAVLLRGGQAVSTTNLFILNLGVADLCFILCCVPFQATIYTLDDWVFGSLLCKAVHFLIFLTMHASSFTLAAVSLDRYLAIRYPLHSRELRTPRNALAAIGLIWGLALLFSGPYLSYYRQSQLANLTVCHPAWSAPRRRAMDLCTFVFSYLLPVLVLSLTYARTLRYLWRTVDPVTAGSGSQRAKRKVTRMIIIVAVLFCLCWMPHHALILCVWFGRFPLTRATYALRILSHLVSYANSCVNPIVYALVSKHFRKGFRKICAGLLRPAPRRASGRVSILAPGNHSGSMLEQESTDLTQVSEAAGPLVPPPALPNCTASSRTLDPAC", "experiment": "displacement of [125I] rat galanin from GALR2-expressing CHO cell membrane fraction"}},
  "data": [
    {"binder": "B1", "values": [
      {"measurement": "IC50", "setting": "[1]", "value": 6, "unit": "nM"}
    ]},
    {"binder": "B2", "values": [
      {"measurement": "IC50", "setting": "[2]", "value": 1.4, "unit": "nM"}
    ]},
    {"binder": "B3", "values": [
      {"measurement": "IC50", "setting": "[2]", "value": 1.4, "unit": "nM"}
    ]}
  ]
}
